Measured values as given in patent US20160015828A1 (AbbVie / Abbott, published 2016).
Substitutions are numbered along the chain they refer to. Each block holds one binder with its values, some of them ahead of it.

Assays:
human DLL3 [1] = biological target: T1, human DLL3 (UniProt Q9NYJ7 27-492); experiment: BLI (ForteBio)
T1 chain: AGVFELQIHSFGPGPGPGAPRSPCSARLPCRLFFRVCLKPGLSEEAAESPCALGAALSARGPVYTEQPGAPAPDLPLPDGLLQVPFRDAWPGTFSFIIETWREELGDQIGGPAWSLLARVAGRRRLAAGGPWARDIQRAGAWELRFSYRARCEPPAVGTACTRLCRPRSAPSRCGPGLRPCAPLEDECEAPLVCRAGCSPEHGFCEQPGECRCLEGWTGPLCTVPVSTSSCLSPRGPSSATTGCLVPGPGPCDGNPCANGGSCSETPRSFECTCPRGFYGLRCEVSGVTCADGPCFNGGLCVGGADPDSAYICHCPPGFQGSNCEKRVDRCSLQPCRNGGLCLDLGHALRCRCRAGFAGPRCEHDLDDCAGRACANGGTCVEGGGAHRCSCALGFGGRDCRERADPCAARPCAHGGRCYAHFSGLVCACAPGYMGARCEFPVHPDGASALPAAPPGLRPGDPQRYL

[2] = biological target: T2, human DLL3 over-expressed on 293 cells (human, UniProt Q9NYJ7 27-618); experiment: flow cytometry, 293 cells over-expressing human DLL3
T2 construct: identical extracellular and transmembrane regions; also called hDLL3; Delta-like ligand 3
T2 sequence: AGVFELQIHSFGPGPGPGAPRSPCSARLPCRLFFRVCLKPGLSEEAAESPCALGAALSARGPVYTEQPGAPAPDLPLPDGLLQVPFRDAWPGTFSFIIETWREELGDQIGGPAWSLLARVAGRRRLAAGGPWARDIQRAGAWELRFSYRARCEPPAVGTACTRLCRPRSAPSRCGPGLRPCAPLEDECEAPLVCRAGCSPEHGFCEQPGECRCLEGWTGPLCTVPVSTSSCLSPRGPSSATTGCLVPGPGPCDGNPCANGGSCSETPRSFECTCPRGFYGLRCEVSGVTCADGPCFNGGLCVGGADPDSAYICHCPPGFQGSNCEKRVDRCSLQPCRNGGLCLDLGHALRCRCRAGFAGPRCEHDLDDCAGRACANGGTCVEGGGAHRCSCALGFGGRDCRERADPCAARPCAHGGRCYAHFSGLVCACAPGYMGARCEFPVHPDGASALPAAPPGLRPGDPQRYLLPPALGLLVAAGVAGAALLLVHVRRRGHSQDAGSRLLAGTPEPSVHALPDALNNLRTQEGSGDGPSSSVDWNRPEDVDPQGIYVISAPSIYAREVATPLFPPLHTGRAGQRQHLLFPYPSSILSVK
Method: (§1) In addition to evaluating the exemplary modulators as set forth above, flow cytometry was performed in order to confirm that selected SC16 antibody modulators can immunospecifically associate with human DLL3 and to determine whether the same antibodies cross-react with cynomolgus, rat and/or murine DLL3. More particularly the exemplary murine antibodies were analyzed by flow cytometry using a FACSCanto II and 293 cells over-expressing murine, rat, cynomolgus or human DLL3. In some cases, exemplary murine modulators were analyzed by flow cytometry using a FACSCanto II and yeast cells displaying cynomolgus DLL3 using the methods described by Cochran et al. (J Immunol Methods. 287 (1-2):147-158 (2004).

[3] = biological target: T3, rat DLL3 over-expressed on 293 cells (rat, UniProt O88671 33-589); experiment: flow cytometry, 293 cells over-expressing rat DLL3
T3 construct: whole, on cells
T3 sequence (looked up): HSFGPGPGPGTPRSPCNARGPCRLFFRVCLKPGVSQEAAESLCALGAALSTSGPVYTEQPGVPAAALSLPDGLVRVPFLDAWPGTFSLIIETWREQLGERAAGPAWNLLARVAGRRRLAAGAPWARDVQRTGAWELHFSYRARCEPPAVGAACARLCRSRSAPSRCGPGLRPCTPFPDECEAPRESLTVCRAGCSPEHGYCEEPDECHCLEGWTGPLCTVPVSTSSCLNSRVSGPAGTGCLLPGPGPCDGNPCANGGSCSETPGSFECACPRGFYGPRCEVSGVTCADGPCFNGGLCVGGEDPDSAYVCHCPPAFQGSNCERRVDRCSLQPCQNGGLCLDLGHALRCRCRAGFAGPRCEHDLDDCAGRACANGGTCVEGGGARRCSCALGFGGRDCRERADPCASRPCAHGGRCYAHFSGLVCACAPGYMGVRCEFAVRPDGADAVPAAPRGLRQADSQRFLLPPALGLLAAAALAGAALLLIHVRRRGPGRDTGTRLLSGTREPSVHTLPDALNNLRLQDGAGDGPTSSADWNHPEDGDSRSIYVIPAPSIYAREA
Method: as §1

human DLL3 [4] = biological target: T1, human DLL3; experiment: SPR (Biacore)
human DLL3 [5] = biological target: T1, human DLL3; experiment: BLI (ForteBio)

B1: SC16.8 (antibody, V domains shown)
VH: QAQLQQSGAELVRPGTSVKVSCKASGYAFTNYLIEWVKQRPGQGLEWIGVINPGTGGTNYNENFKGKATLTADKSSSTAYMQLSSLTSDDSAVYFCARSPYDYHEGAMDYWGQGTSVTVSS
VL: EIQMTQSPSSMSASLGDRITITCQATQDIVKNLNWYQQKPGKPPSFLIYYAIELAEGVPSRFSGSGSGSDYSLTISNLESEDFADYYCLQFYEFPFTFGAGTKLELK
notes: murine mAb; V regions only
Kd (human DLL3 [1]): 0.5 nM
binding result [2]: binds
binding result [3]: binds

B2: SC16.7 (antibody, V domains shown)
VH: EVQLQQSGPELVKPGASVKISCKASGYSFTGYKMHWVKQSHVKSLEWIGRINPYNGATSYNQNFKDKATLTVDKSSSTAYMDLHSLTSEDSAVYFCARGDYRYDWFAYWGQGTLVTVSA
VL: NIMMTQSPSSLAVSAGEKVTMSCKSSQSVLYSSNQKNYLAWYQQKPGQSPKLLIYWASTRESGVPDRFTGSGSGTDFTLTISTVQVEDLAVYYCHQYLSSWTFGGGTKLEIK
notes: murine mAb; V regions only
binding result [2]: binds

B3: SC16.25 (antibody, V domains shown)
VH: QVTLKESGPGILQPSQTLSLTCSFSGFSLSTSGMGVGWIRQPSGEGLEWLTDIWWDDNKYYNPSLKSRLTISKDTSSNQVFLNITSVDTADTATYYCARRVNYYYDPYYAMDYWGQGTSVTVSS
VL: QIVLTQSPAIMSASPGEKVTMTCSASSSVSYMHWYQQKSGTSPKRWIYDSSKLASGVPARFSGSGSGTSYSLTISSMEAEDAATYYCQQWSSNPLTFGAGTKLELK
notes: murine mAb; V regions only
binding result [2]: binds
Kd (human DLL3 [4]): 0.2 nM

B4: SC16.56 (antibody, V domains shown)
VH: QIQLVQSGPELKKPGETVKISCKASGYTFTNYGMNWVKQAPGKGLKWMAWINTYTGEPTYADDFKGRFAFSLETSASTASLQIINLKNEDTATYFCARIGDSSPSDYWGQGTTLTVSS
VL: SIVMTQTPKFLLVSAGDRVTITCKASQSVSNDVVWYQQKPGQSPKLLIYYASNRYTGVPDRFAGSGYGTDFSFTISTVQAEDLAVYFCQQDYTSPWTFGGGTKLEIR
notes: murine mAb; V regions only
binding result [2]: binds
binding result [3]: binds
Kd (human DLL3 [4]): 1 nM

B7: SC16.13 (antibody, V domains shown)
VH: QVTLKESGPGILQPSQTLSLTCSFSGFSLSTSGMGVGWIRQPSGKGLEWLAHIWWDDVKRYNPALKSRLTISKDTSSSQVFLKIASVDTADTATYYCARIVSFDNDVVSAMDYWGQGTSVTVSS
VL: QIVLTQSPALVSASPGEKVTMTCSASSSVSYMYWYQQKPRSSPKPWIYLTSNLASGVPARFSGSGSGTSYSLTISSMEAEDAATYYCQQWRSNPFTFGSGTKLEIK
Kd (human DLL3 [4]): 2 nM

B8: SC16.67 (antibody, V domains shown)
VH: EVQLVETGGGLVQPKGSLKLSCAVSAFTFTTYAMNWVRQAPGKGLEWVARIRNKSNNYATYYADSVKDRFTISRDDSQSMLYLQMNNLKIEDTAMYYCVFYYDYVYWGQGTLVTVSA
VL: QAVVTQESALTTSPGETVTLTCRSSTGAVTTSNYANWIQEKPDHLFTGLIGGTNNRAPGVPARFSGSLIGDKAALTITGAQTEDEAIYFCGLWYSNHLVFGGGTKLTVL
Kd (human DLL3 [1]): 0.5 nM

B11: SC16.39 (antibody, V domains shown)
VH: EVKLEESGGGLVQFGGSMKLSCAASGFTFSDAWMDWVRQSPEKGLEWVAEIRNKANNHATYYPESVKGRFTISRDDSKSRVYLQMNNLRAEDTGIYYCTGYSSFAYWGQGTLVTVSA
VL: DIQMTQTTSSLSASLGDRVTISCRASQDVINYLNWYQQKPDGTVKLLIYYTSRLHSGVPSRFSGSGSRTDYSLTISNLEPEDIATYYCQQYSERPYTFGGGTKLEIK
Kd (human DLL3 [5]): 1 nM

Other lines, results leading:

binding result [2]: binds
binding result [3]: binds
Kd (human DLL3 [4]): 0.2 nM
B5: SC16.34 (antibody, V domains shown)
VH: B4 VH with K13R, A49G, E57D, S80Y, I84N, D101G, S102N, T113S
VL: B4 VL with V34A, T56S, A63T, S72T, T93S, R107K
notes: murine mAb; V regions only

binding result [2]: binds
Kd (human DLL3 [4]): 0.9 nM
B6: SC16.65 (antibody, V domains shown)
VH: B7 VH with H52L, T75A, V101A, F103Y, N105Y, S109Y, T121S
VL: B7 VL with V11M, A25V, S26T, M77V, S92N, L103V
notes: murine mAb; V regions only

binding result [2]: binds
binding result [3]: binds
Kd (human DLL3 [4]): 0.5 nM
B9: SC16.15 (antibody, V domains shown)
VH: QVQLQQSGAELAKPGASVKMSCKASGYTFTRYWIHWIKQRPGQGLEWIGYINPTTVYTEFNQNFKDKATLTADKSSTTASMQLSSLTSEDSAVYYCARGGSNFFDYWGQGTTLTVSS
VL: DIQMTQSPASLAASVGETVAITCRASENIYYNLAWYQQKQGKSPQLLIYTANSLEDGVPSRFSGSGSGTQYSLKINSMQPEDSATYFCKQAYDVPPTFGGGTKLEIK
notes: murine mAb; V regions only

Kd (human DLL3 [1]): 0.5 nM
binding result [2]: binds
binding result [3]: binds
B10: SC16.4 (antibody, V domains shown)
VH: QIQLVQSGPELKKPGETVKISCKASGYTFTDYSMHWVKQAPGKGLKWMGWINTETGEPGYADDFKGRFAFSLETSASTAYLQINNLKNEDTATYFCARYDGYAMDYWGQGTSVTVSS
VL: B11 VL with V29I, I30S, R68G, P80L, Y87F, Y91G, S92D, E93M, R94L, Y96W
notes: murine mAb; V regions only

Kd (human DLL3 [1]): 4 nM
binding result [2]: binds
B12: SC16.10 (antibody, V domains shown)
VH: QVTLKESGPGILQSSQTLSLTCSFSGFSLSTSGMGVGWIRQPSGKGLEWLAHIWWDDVKRYNPVLKSRLTISKDTSSSQVFLKIASVDTADTATYYCARLVDDLYYFDYWGQGTTLTVSS
VL: QIVLTQSPAIMSASLGERVTMTCTASSSVSSSYLHWYQQKPGSSPKLWIYSTSNLASGVPTRFSGSGSGTSYSLTISSMEAEDAATYYCHQYHRSPFTFGSGTKLEIK
notes: murine mAb; V regions only
